{"source": "patent US20190381169A1", "about": "“PHARMACEUTICAL COMBINATIONS FOR IMMUNOTHERAPY” (Technische Universitat Dresden, priority 2014, published 2019)", "key": {"p75^NTR [1]": {"biological_target": "T1, p75^NTR (Mus musculus, UniProt Q9Z0W1)", "T1 construct": "endogenous in cells; host or cells: murine plasmacytoid dendritic cells differentiated in vitro from bone marrow with Flt3-L (p75NTR+/+ wildtype; p75NTR-/- as control)", "T1 sequence (Q9Z0W1 32-427)": "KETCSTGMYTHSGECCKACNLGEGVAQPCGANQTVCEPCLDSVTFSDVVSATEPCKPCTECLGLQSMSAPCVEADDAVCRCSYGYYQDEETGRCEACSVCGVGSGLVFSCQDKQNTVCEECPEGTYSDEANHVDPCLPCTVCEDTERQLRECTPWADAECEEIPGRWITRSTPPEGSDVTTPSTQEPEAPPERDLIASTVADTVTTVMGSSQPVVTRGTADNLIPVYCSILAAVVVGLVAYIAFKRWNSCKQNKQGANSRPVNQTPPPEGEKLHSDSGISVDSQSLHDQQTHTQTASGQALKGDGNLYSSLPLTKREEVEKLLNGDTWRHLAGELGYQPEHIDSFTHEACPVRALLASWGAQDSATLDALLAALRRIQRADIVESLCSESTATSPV", "conditions": "in vivo"}, "p75^NTR [2]": {"biological_target": "T1, p75^NTR", "test": "Western blotting of TLR signalling proteins in CpG treated murine PDCs", "format": "cell-based", "excerpt": "To investigate the mechanisms underlying these effects, we analysed PDCs treated with CPG-ODNs Class A (FIG. 3F) or Class B (FIG. 3G) using western blotting."}, "p75^NTR [3]": {"biological_target": "T1, p75^NTR", "test": "Th1 cytokine secretion in co-culture of murine PDCs and OTII T-cells with ovalbumin peptide (CBA)", "format": "cell-based", "conditions": "OTII T-cells with p75^NTR+/+ PDCs and ovalbumin peptide 323-339, NGF 100 ng/ml, compared to p75^NTR−/− PDCs", "description": "Murine T-cells were isolated from the OTII mouse strain expressing mouse alpha-chain and beta-chain T-cell receptor specific for chicken ovalbumin 323-339, using the CD+ T-cell isolation kit (Miltenyi Biotec).\nBoth, murine PDCs and T-cells were cultured overnight with or without the chicken ovalbumin peptide 323-339 in the presence or absence of NGF (100 ng/ml). The concentrations of T-cell secreted Th1-cytokines IL-2 and IFNγ in the supernatant were determined by using the CBA kit (BD Bioscience) following manufacturer's instruction with modification in data analysis using Microsoft Excel. […] In the presence of p75^NTR+/+ PDCs presenting the ovalbumin peptide (OVA) to the T-cells, T-cells secrete the Th1 cytokines IFNγ (FIG. 5A) and IL-2 (FIG. 5B)."}, "p75^NTR [4]": {"biological_target": "T2, p75^NTR (Homo sapiens, UniProt P08138)", "T2 sequence (P08138 29-427)": "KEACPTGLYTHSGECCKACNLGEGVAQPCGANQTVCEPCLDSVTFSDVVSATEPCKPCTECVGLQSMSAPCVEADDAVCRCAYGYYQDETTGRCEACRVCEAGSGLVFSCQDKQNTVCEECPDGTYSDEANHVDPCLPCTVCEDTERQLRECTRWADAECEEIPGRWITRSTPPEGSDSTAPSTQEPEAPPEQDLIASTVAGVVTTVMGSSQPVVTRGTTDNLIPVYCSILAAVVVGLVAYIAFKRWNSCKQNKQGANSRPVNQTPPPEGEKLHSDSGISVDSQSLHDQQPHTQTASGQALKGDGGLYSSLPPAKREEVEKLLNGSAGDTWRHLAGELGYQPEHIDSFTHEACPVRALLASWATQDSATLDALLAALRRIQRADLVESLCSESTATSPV", "test": "Th2 prone GvHD xenotransplantation model: NSG mice given human autologous T-cells and PDCs", "quoted_text": "Recipient mice from NSG mouse strain were pre-condition by irradiation with 3 Gy 24 hours before transplantation of human cells\nFor scoring of GvHD incidence and survival transplanted mice were monitored daily for weight, behaviour, skin, activity, fur and other parameters.\nHuman, autologous T-cells and PDCs were stimulated either with CpG B or not. Overnight co-cultured was done in the absence or presence of NGF. One day later human cells were transplanted into irradiated NSG mice by i.v. injection."}, "p75^NTR [5]": {"biological_target": "T1, p75^NTR", "test": "Expression of MHC and co-stimulatory molecules on murine PDCs", "format": "cell-based"}, "p75^NTR [6]": {"biological_target": "T1, p75^NTR", "test": "Cytokine secretion and TLR9 expression of CpG stimulated murine PDCs", "format": "cell-based", "description": "Murine PDC were generated in vitro as follows: Bone marrow cells were isolated by flushing femur and tibia of mice. Erythrocytes were lysed using ACK buffer. Remaining cells were washed and cultured at a density of 2×10^6 cells per ml in RPMI 1640 medium supplemented with 10% FCS, 1 mM sodium pyruvat, 2 mM L-glutamine, 100 IU per ml penicillin, 100 μg/ml streptomycin, 10 mM HEPES buffer and 0.1 mM β-mercaptoethanol. To differentiate bone marrow cells into PDCs, 100 ng/ml Flt3-L (fms-like tyrosine kinase 3-ligand) was added to the cells. After 8 days of culture PDCs were enriched by removing the CD11b^+ fraction using CD11b Microbeads (Miltenyi Biotec) according to manufacturer instructions. Dead cells were excluded using Dead cell removal Kit (Miltenyi Biotec). Purity of PDCs was evaluated by flow cytometry (CD11b^−CD11c^+B220^+Siglec-H^+).\nMurine PDC express the low affinity neurotrophin receptor p75^NTR but not the high affinity neurotrophin receptors (FIGS. 3A, 3B). […] Furthermore, only p75^NTR expressing PDC (p75^NTR+/+) increased the CPG-ODNs Class B induced secretion of the Th2 response inducing cytokines IL-6 and TNFα in the presence of NGF (FIG. 3D)."}, "[7]": {"conditions": "CpG A stimulated p75^NTR+/+ PDCs, NGF added"}, "[8]": {"conditions": "p75^NTR+/+ PDCs co-incubated with CpG B and NGF"}, "[9]": {"conditions": "p75^NTR+/+ PDCs stimulated with CpG B, presence of NGF"}, "[10]": {"conditions": "p75^NTR+/+ PDCs stimulated with ovalbumin (OVA), NGF added"}}, "note": "“Also recorded” adds a separate entry of the source.", "data": [{"substance": "NGF: Nerve growth factor, best characterized neurotrophin; natural p75^NTR agonist (R&D Systems)", "values": [{"measurement": "type I diabetes incidence without CpG B", "setting": "p75^NTR [1]", "value": "no NGF dependent effect"}, {"measurement": "time of onset of PDC induced type I diabetes (diabetes free time)", "setting": "p75^NTR [1]; iv", "value": "occurred at a significant later stage; also recorded: significantly prolonged"}, {"measurement": "activation (phosphorylation) of IRF-3, IRF7, IKK and c-Jun", "setting": "p75^NTR [2]; [7]", "value": "reduced activation"}, {"measurement": "expression of MyD88 and TRAF6", "setting": "p75^NTR [2]; [7]", "value": "reduced expression"}, {"measurement": "CpG A-induced phosphorylation of IRF3 and IRF7", "setting": "p75^NTR [2]; p75^NTR+/+ PDCs", "value": "attenuated"}, {"measurement": "activation (phosphorylation) of IRF3, IRF7, IKK and c-Jun", "setting": "p75^NTR [2]; [8]", "value": "increased"}, {"measurement": "expression of MyD88 and TRAF3", "setting": "p75^NTR [2]; [8]", "value": "increased expression"}, {"measurement": "levels of CpG-induced phosphorylation of IRF3 and IRF7 in p75^NTR−/− pDCs", "setting": "p75^NTR [2]; p75^NTR−/− pDCs", "value": "did not alter"}, {"measurement": "secretion of Th1 cytokines IFNγ and IL-2", "setting": "p75^NTR [3]", "value": "reduced secretion"}, {"measurement": "mortality (survival)", "setting": "p75^NTR [4]; CpG B stimulated PDCs co-cultured in presence of NGF before transplantation", "value": "significantly increased mortality"}, {"measurement": "severity of GvHD (cumulative GvHD incidence)", "setting": "p75^NTR [4]; CpG B stimulated PDCs co-cultured with T-cells in presence of NGF before i.v. transplantation, 12 weeks", "value": "increased severity of GvHD"}, {"measurement": "cumulative GvHD incidence or survival without CpG B", "setting": "p75^NTR [4]; PDCs cultured without TLR stimulating CpG B, data not shown", "value": "no NGF dependent effect; also recorded: abolished the accelerating NGF effect"}, {"measurement": "expression of MHC-II", "setting": "p75^NTR [5]; p75^NTR+/+ PDCs stimulated with CpG A, presence of NGF", "value": "reduced expression; also recorded: decreased expression"}, {"measurement": "expression of MHC I", "setting": "p75^NTR [5]; [9]", "value": "further increased expression"}, {"measurement": "expression of MHC-II", "setting": "p75^NTR [5]; [9]", "value": "increased expression; also recorded: further increase"}, {"measurement": "expression of ICOS-L and MHC-II", "setting": "p75^NTR [5]; [10]", "value": "further increased; also recorded: increased expression"}, {"measurement": "expression of MHC-I, PD-L1 and Ox40-L", "setting": "p75^NTR [5]; [10]", "value": "altered the expression; also recorded: decreased expression"}, {"measurement": "expression of MHC-I, PD-L1 and Ox40-L on p75^NTR−/− PDCs", "setting": "p75^NTR [5]; p75^NTR−/− PDCs stimulated with ovalbumin, NGF added", "value": "but not on p75^NTR−/− PDCs"}, {"measurement": "IFNα secretion", "setting": "p75^NTR [6]; CPG-ODNs Class A (CpG A) stimulated p75^NTR+/+ PDCs, increasing NGF levels", "value": "decreasing levels; also recorded: reduced"}, {"measurement": "expression of TLR9", "setting": "p75^NTR [6]; [7]", "value": "reduced expression; also recorded: negatively influenced"}, {"measurement": "CPG-ODNs Class B induced secretion of IL-6 and TNFα", "setting": "p75^NTR [6]; p75^NTR+/+ PDC in presence of NGF", "value": "increased"}, {"measurement": "CpG-induced increase in TLR9 expression level", "setting": "p75^NTR [6]; p75^NTR+/+ PDCs, CpG A or CpG B, presence of NGF", "value": "significantly decreased"}, {"measurement": "TLR9 expression of p75^NTR−/− PDCs", "setting": "p75^NTR [6]; p75^NTR−/− PDCs, CpG A or CpG B stimulation, NGF added", "value": "does not display a NGF induced alteration of TLR9 expression; also recorded: showed now difference in TLR9 expression"}]}]}
